The values that follow come from paper PMC4955856 (Biochemistry, 2016).

Several values for one entry are separate records, joined by “and”; a condition that tells them apart may be missing. Equal values may be shown once. Read-outs that look alike come from different tables or passages of the source.

Data set [1] deals with human UDP-glucose dehydrogenase Q458Bpa (human) (UniProt O60701). The experiment in a line: SEC.
For data set [2] the target is unchanged. The experiment in a line: cross-linking.
Data set [3] has the same target. The experiment in a line: SEC. The source holds these as a separate data set.
Data set [4] deals with human UDP-glucose dehydrogenase Y96Bpa (human) (UniProt O60701). The experiment in a line: SEC. In general terms: SEC sorts molecules by how far they enter the pores of the column.
The target of data set [5] is human UDP-glucose dehydrogenase T325D obligate dimeric mutant (human) (UniProt O60701). The experiment in a line: SEC.
The data set “SEC” deals with the molecule itself. The experiment in a line: SEC.

The term stoichiometry N denotes the number of molecules, sites or subunits per partner or assembly. For the molecule “human UDP-glucose dehydrogenase Q458Bpa (from UniProt O60701 1-494) (enzyme)”, the stoichiometry N in data set [1] was 6. For the same molecule, in data set [2], the cross-linking efficiency (holoenzyme) is greater than 60%; the cross-linking efficiency (with UDP-xylose alone) amounted to 40%; the total crosslinking efficiency (with NAD+ and UDP-glucose) came out at 63%. Besides, in data set [3], the stoichiometry N came to 6.

For the molecule “human UDP-glucose dehydrogenase Y96Bpa (from UniProt O60701 1-494) (enzyme)”, the stoichiometry N in data set [4] turned out to be 2.

On to “human UDP-glucose dehydrogenase T325D obligate dimeric mutant (from UniProt O60701 1-494) (enzyme)”, for which the stoichiometry N in data set [5] was 2.

B1: human UDP-glucose dehydrogenase, wild type (enzyme, UniProt O60701 1-494, looked up)
chain: MFEIKKICCIGAGYVGGPTCSVIAHMCPEIRVTVVDVNESRINAWNSPTLPIYEPGLKEVVESCRGKNLFFSTNIDDAIKEADLVFISVNTPTKTYGMGKGRAADLKYIEACARRIVQNSNGYKIVTEKSTVPVRAAESIRRIFDANTKPNLNLQVLSNPEFLAEGTAIKDLKNPDRVLIGGDETPEGQRAVQALCAVYEHWVPREKILTTNTWSSELSKLAANAFLAQRISSINSISALCEATGADVEEVATAIGMDQRIGNKFLKASVGFGGSCFQKDVLNLVYLCEALNLPEVARYWQQVIDMNDYQRRRFASRIIDSLFNTVTDKKIAILGFAFKKDTGDTRESSSIYISKYLMDEGAHLHIYDPKVPREQIVVDLSHPGVSEDDQVSRLVTISKDPYEACDGAHAVVICTEWDMFKELDYERIHKKMLKPAFIFDGRRVLDGLHNELQTIGFQIETIGKKVSSKRIPYAPSGEIPKFSLQDPPNKKPKV
Take B1: the “stoichiometry N” value in “SEC” was 6 and 2.
